Tests used:
diabetogenic mice = test: In vivo delivery efficiency test: plasma glucose levels in diabetogenic mice; details: 0.2 IU insulin, subcutaneous injection
Procedure: In this experiment, male C57BL/6 mice (7 to 8 week-old, OrientBio) were used. Animal experiments were conducted according to the Guide for the Care and Use of Laboratory Animals by the Severance Hospital Ethics Committee (Reference No.: 09-013, College of Pharmacy, Yonsei University, Korea). […] For successful diabetes induction, the blood glucose concentrations of all the mice were measured using a OneTouch Verio IQ system. […] Diabetogenic mice were divided into four groups, as follows: (a) an untreated group (a negative control); (b) a subcutaneously injected group (0.2 IU, a positive control); […] The mice were fasted during an experiment period, and freely fed with water. […] After 6 hours of the treatment, blood samples (0.1 ml) were taken from wounded tail vein areas every one hour. […] The plasma glucose levels per hour in each group were measured using a glucose CII-Test kit. The plasma insulin concentrations were measured using an insulin ELISA kit (ALPCO). To examine the in vivo delivery efficiency by DMN patch and subcutaneous injection (SC) methods and through the microlancer, insulin was administered to diabetogenic mice using each of the methods, and changes in blood glucose levels were measured. […] Insulin was administered using each of the methods, and changes in plasma glucose levels in the diabetogenic mice were measured after the elapse of 6 hours (see FIG. 17B).

[1] = In vivo delivery efficiency test: plasma insulin concentrations in diabetogenic mice; details: 0.2 IU insulin, subcutaneous injection
Procedure: In this experiment, male C57BL/6 mice (7 to 8 week-old, OrientBio) were used. Animal experiments were conducted according to the Guide for the Care and Use of Laboratory Animals by the Severance Hospital Ethics Committee (Reference No.: 09-013, College of Pharmacy, Yonsei University, Korea). The mice were anesthetized with Avertin (2,2,2-tribromoethanol, Sigma-Aldrich), and 50 mg/kg of streptozotocin in a sodium citrate buffer (pH=4.5) was intravenously injected into the mice to induce diabetes. For successful diabetes induction, the blood glucose concentrations of all the mice were measured using a OneTouch Verio IQ system.
Diabetogenic mice were divided into four groups, as follows: (a) an untreated group (a negative control); (b) a subcutaneously injected group (0.2 IU, a positive control); (c) a patch-treated group (0.2 IU insulin-loaded DMNs); and (d) a microlancer-treated group (0.2 IU insulin-loaded DMNs) (n=5 per group). The mice were fasted during an experiment period, and freely fed with water. The back regions of the mice were shaved using an electric shaver, and 0.2 IU of insulin was administered by means of a DMN patch through a microlancer or by subcutaneous injection. […] The plasma glucose levels per hour in each group were measured using a glucose CII-Test kit. The plasma insulin concentrations were measured using an insulin ELISA kit (ALPCO).

In the case of “insulin: Humalog insulin purchased from Eli Lilly; 0.2 IU subcutaneously injected as positive control”, the “time of lowest blood glucose level compared to insertion through the microlancer” value (diabetogenic mice) is reported as “an hour earlier”, the “maximum plasma insulin concentration” value [1] is reported as 156 μIU/ml and the “time of peaks for the plasma insulin concentration” value [1] is reported as “an hour”.
